Reference: patent US20190353661A1 (VANDERBILT UNIVERSITY, published 2019)

Assays:
Assay in all cases: Phadia diagnostics and/or Western blot
Peanut allergen Ara h 6 = target: T1, Peanut allergen Ara h 6 (peanut, UniProt Q647G9 22-145)
T1 sequence (looked up): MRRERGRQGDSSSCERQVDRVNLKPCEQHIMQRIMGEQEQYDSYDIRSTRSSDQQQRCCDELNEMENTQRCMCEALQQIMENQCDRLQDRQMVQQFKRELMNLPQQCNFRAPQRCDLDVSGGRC

[1] = target: T2, Dust mite allergen Der p 1 (dust mite (Dermatophagoides …, UniProt P08176 99-320))
T2 sequence (looked up): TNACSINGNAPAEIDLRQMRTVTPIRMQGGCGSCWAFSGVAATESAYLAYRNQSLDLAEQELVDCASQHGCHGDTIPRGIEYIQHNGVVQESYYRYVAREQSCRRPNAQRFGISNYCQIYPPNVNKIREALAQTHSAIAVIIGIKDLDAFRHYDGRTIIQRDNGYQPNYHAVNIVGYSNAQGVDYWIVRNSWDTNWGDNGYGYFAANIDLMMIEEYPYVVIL

Cat allergen Fel d 1 = target: T3, Cat allergen Fel d 1 (cat, UniProt P30438 23-92; P30440 18-109)
T3 sequence (looked up) 1: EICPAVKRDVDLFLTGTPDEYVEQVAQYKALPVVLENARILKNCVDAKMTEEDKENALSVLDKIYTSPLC
T3 sequence (looked up) 2: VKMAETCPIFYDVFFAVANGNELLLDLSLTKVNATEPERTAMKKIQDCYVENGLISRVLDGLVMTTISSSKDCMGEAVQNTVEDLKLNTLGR

[2] = target: T4, Aspergillus fumigatus allergen Asp f 1 (Aspergillus fumigatus, UniProt P67875 28-176)
T4 sequence: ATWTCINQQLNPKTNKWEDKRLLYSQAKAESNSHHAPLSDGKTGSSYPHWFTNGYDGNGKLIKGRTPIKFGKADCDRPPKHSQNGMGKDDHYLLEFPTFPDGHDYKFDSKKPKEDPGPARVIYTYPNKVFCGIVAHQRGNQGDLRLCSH

B1: Human IgE mAb 1A8 (antibody, V domains shown)
VH: QLQLQESGPGLVKPSETLSLTCSVSDDSISTPSYFWTWIRQPPGKGLEWIASIYYTGTTYYNPSLKSRVTLSVDTPKRQFFLRLSSVTAADTAVYYCARYLDYVWLRAFDVWGQGAMVTVSS
VL: EIVLTQSPATLSLSPGERATLSCRASPSVGRFLAWYQQKPGQAPRLLIYDASQRATDIPARFSASGSGTDFTLTIDSLEPEDFAIYYCQHRSNWPVTFGGGTRVEIK
notes: Natural human IgE from a hybridoma
B1: binds (Peanut allergen Ara h 6).

B2: Human IgE mAb 8F3 (antibody, V domains shown)
VH: QLQLQESGPGLVKPSETLSLTCTVSDASIDTPSYFWSWIRQPPGKGLEWIGSIYYTGNKYSNPSLKSRVTMSVDTPKRQFSLRLSSVTAADTAVYYCARYVDYVWLRAFDIWGQGTRVTVSS
VL: EIVLTQSPATLSLSPGERATLSCRASPSAGRFLAWYQQRPGQAPRLLIYDASKRATDTPARFSGSGSGTDFNLTIASLEPEDFAVYYCQHRSNWPLTFGGGTKVEIK
notes: as for B1
B2: binds (Peanut allergen Ara h 6).

B3: Human IgE mAb 1C14 (antibody, V domains shown)
VH: QVQLQESGPGLVKPSQTLSLTCTVSGGSISSGGFFWGWIRQHPGRDLEWIGYIFYTGSTNYNPSLKNRVTLSVDTSKNHFSLNLTSVTVADTAVYYCARQGGVRGNYYFMDVWGKGTTVTVSS
VL: DIQMTQSPSSLSASVGDRVTITCRASQSISNYLNWYQQKPGKAPKLLIYAASRLQSGVPSRFSGSGSGTELTLTISSLQPEDFATYFCQQSYNTPYSFGQGTKVEIK
notes: as for B1
B3: binds [1].

B4: Human IgE mAb 1B7 (antibody, V domains shown)
VH: EFQLQESGPGLVKPSETLSLNCSVSGGSISNNYWNWIRQPPGKGLEWIGYISYSGRTHYNPSLKSRVSISLHTSKNHFSLKLTSVAAADTAMYYCARESTYSYKLGDAFDIWGQGTMVTVSA
VL: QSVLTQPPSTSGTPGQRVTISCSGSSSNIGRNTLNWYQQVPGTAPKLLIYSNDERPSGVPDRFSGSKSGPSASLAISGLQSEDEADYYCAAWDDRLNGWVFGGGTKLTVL
B4: binds (Cat allergen Fel d 1).

B5: Human IgE mAb 14H4 (antibody, V domains shown)
VH: EVQLVQSGAEVKRAGESLKISCKGSGYPFATYWVGWVRQMPGKGLEWMTIIYPEDSDTRYSPSFQDHVTISADKSLSTAYLQWSSLKASDTAMYYCARVSRYYYDSRSYYPDAFDIWGQGTMVTVSS
VL: SYELTQPPSVSVSPGQTASITCSGDKLGDKYVCWYQQKPGRSPVLVVHQDTKRPSGIPERFSGSNSGDTATLTISGTQAMDEADYYCQAWDSTIGVFGPGTRVTVL
notes: as for B1
B5: binds [2].
